Reference: paper PMC6549159

Biological target: GFP-tagged mDia1ΔN3 (mouse) (UniProt O08808)
Chain of UniProt O08808 (O08808 543-1192, stated change not applied): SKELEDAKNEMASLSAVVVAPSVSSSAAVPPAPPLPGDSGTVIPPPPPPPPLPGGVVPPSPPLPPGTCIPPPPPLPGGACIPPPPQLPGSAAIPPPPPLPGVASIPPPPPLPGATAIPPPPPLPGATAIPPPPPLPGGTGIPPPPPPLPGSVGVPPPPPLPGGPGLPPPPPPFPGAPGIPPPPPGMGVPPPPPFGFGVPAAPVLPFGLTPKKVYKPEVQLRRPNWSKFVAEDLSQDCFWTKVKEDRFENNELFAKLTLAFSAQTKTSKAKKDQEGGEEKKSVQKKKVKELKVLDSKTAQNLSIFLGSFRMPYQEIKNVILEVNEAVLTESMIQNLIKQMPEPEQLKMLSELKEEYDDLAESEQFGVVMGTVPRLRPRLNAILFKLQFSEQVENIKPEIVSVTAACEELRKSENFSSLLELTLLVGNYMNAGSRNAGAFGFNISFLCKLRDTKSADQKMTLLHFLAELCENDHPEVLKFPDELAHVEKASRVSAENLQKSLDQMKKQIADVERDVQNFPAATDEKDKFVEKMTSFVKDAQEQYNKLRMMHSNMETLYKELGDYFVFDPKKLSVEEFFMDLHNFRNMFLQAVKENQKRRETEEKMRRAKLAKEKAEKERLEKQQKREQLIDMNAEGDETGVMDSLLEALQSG

frequency of MyoG+ cells (immunofluorescence) in C2C12 myotubes co-expressing Phb2 FL and mDia1ΔN3 (mDia1ΔN3 alone: 15%): 53%
Substance: Flag-tagged mouse Phb2 FL (from UniProt O35129 1-299) (natural protein)
